Columns and labels:
[1] = system: oligomeric Aβ1-42 (oAβ1-42-biotin bait); experiment: Affinity capture interactome Experiment II (C-terminally tethered oAβ1-42-biotin vs biotin); conditions: for Experiment II oAβ1-42-B/B Ratio: enrichment relative to biotin-only negative control, human frontal lobe digitonin extract, TMT, pH 8.0, 4°C overnight
[2] = system: oligomeric versus monomeric Aβ1-42 (Aβ1-42-biotin bait); experiment: Affinity capture interactome Experiment III (oAβ1-42-biotin vs mAβ1-42-biotin); conditions: for Experiment III oAβ1-42-B/mAβ1-42-B Ratio: oligomeric versus monomeric bait, human frontal lobe digitonin extract, TMT, pH 8.0, 4°C overnight

B1: ATP synthase subunit alpha, mitochondrial: human brain protein (protein, UniProt P25705 44-553, looked up)
ATP synthase F(1) complex …: QKTGTAEMSSILEERILGADTSVDLEETGRVLSIGDGIARVHGLRNVQAEEMVEFSSGLKGMSLNLEPDNVGVVVFGNDKLIKEGDIVKRTGAIVDVPVGEELLGRVVDALGNAIDGKGPIGSKTRRRVGLKAPGIIPRISVREPMQTGIKAVDSLVPIGRGQRELIIGDRQTGKTSIAIDTIINQKRFNDGSDEKKKLYCIYVAIGQKRSTVAQLVKRLTDADAMKYTIVVSATASDAAPLQYLAPYSGCSMGEYFRDNGKHALIIYDDLSKQAVAYRQMSLLLRRPPGREAYPGDVFYLHSRLLERAAKMNDAFGGGSLTALPVIETQAGDVSAYIPTNVISITDGQIFLETELFYKGIRPAINVGLSVSRVGSAAQTRAMKQVAGTMKLELAQYREVAAFAQFGSDLDAATQQLLSRGVRLTELLKQGQYSPMAIEEQVAVIYAGVRGYLDKLEPSKITKFENAFLSHVVSQHQALLGTIRADGKISEQSDAKLKEIVTNFLAGFEA
Experiment II oAβ1-42-B/B Ratio [1]: 2.16 | Experiment III oAβ1-42-B/mAβ1-42-B Ratio [2]: 4.88

B2: 14-3-3 protein epsilon: human brain protein (protein, UniProt P62258 1-255, looked up)
14-3-3 protein epsilon: MDDREDLVYQAKLAEQAERYDEMVESMKKVAGMDVELTVEERNLLSVAYKNVIGARRASWRIISSIEQKEENKGGEDKLKMIREYRQMVETELKLICCDILDVLDKHLIPAANTGESKVFYYKMKGDYHRYLAEFATGNDRKEAAENSLVAYKAASDIAMTELPPTHPIRLGLALNFSVFYYEILNSPDRACRLAKAAFDDAIAELDTLSEESYKDSTLIMQLLRDNLTLWTSDMQGDGEEQNKEALQDVEDENQ
126/131 ([1]; Experiment II, oAbeta 1-42-biotin (TMT 126) versus biotin (TMT 131), replicate channel 126): 1.157 | 128/131 ([1]; Experiment II, oAbeta 1-42-biotin (TMT 128) versus biotin (TMT 131), replicate channel 128): 1.411 | 130/131 ([1]; Experiment II, oAbeta 1-42-biotin (TMT 130) versus biotin (TMT 131), replicate channel 130): 1.195 | 128/131 ([2]; Experiment III, oAbeta 1-42 (TMT 128) versus mAbeta 1-42 (TMT 131), replicate channel 128): 1.113 | 130/131 ([2]; Experiment III, oAbeta 1-42 (TMT 130) versus mAbeta 1-42 (TMT 131), replicate channel 130): 0.949

B3: Heat shock protein, 60 kDa, mitochondrial: human brain protein (protein, UniProt P10809 27-573, looked up)
60 kDa heat shock protein, …: AKDVKFGADARALMLQGVDLLADAVAVTMGPKGRTVIIEQSWGSPKVTKDGVTVAKSIDLKDKYKNIGAKLVQDVANNTNEEAGDGTTTATVLARSIAKEGFEKISKGANPVEIRRGVMLAVDAVIAELKKQSKPVTTPEEIAQVATISANGDKEIGNIISDAMKKVGRKGVITVKDGKTLNDELEIIEGMKFDRGYISPYFINTSKGQKCEFQDAYVLLSEKKISSIQSIVPALEIANAHRKPLVIIAEDVDGEALSTLVLNRLKVGLQVVAVKAPGFGDNRKNQLKDMAIATGGAVFGEEGLTLNLEDVQPHDLGKVGEVIVTKDDAMLLKGKGDKAQIEKRIQEIIEQLDVTTSEYEKEKLNERLAKLSDGVAVLKVGGTSDVEVNEKKDRVTDALNATRAAVEEGIVLGGGCALLRCIPALDSLTPANEDQKIGIEIIKRTLKIPAMTIAKNAGVEGSLIVEKIMQSSSEVGYDAMAGDFVNMVEKGIIDPTKVVRTALLDAAGVASLLTTAEVVVTEIPKEEKDPGMGAMGGMGGGMGGGMF
Experiment II oAβ1-42-B/B Ratio [1]: 2.27 | Experiment III oAβ1-42-B/mAβ1-42-B Ratio [2]: 4.21

B4: Endophilin-A1: human brain protein (protein, UniProt Q99962 1-352, looked up)
Endophilin-A1: MSVAGLKKQFHKATQKVSEKVGGAEGTKLDDDFKEMERKVDVTSRAVMEIMTKTIEYLQPNPASRAKLSMINTMSKIRGQEKGPGYPQAEALLAEAMLKFGRELGDDCNFGPALGEVGEAMRELSEVKDSLDIEVKQNFIDPLQNLHDKDLREIQHHLKKLEGRRLDFDYKKKRQGKIPDEELRQALEKFDESKEIAESSMFNLLEMDIEQVSQLSALVQAQLEYHKQAVQILQQVTVRLEERIRQASSQPRREYQPKPRMSLEFPTGDSTQPNGGLSHTGTPKPSGVQMDQPCCRALYDFEPENEGELGFKEGDIITLTNQIDENWYEGMLHGHSGFFPINYVEILVALPH
Experiment II oAβ1-42-B/B Ratio [1]: 1.28 | Experiment III oAβ1-42-B/mAβ1-42-B Ratio [2]: 1.07

B5: Acetyl-CoA acetyltransferase, mitochondrial: human brain protein (protein, UniProt P24752 34-427, looked up)
Acetyl-CoA acetyltransferase, …: VSKPTLKEVVIVSATRTPIGSFLGSLSLLPATKLGSIAIQGAIEKAGIPKEEVKEAYMGNVLQGGEGQAPTRQAVLGAGLPISTPCTTINKVCASGMKAIMMASQSLMCGHQDVMVAGGMESMSNVPYVMNRGSTPYGGVKLEDLIVKDGLTDVYNKIHMGSCAENTAKKLNIARNEQDAYAINSYTRSKAAWEAGKFGNEVIPVTVTVKGQPDVVVKEDEEYKRVDFSKVPKLKTVFQKENGTVTAANASTLNDGAAALVLMTADAAKRLNVTPLARIVAFADAAVEPIDFPIAPVYAASMVLKDVGLKKEDIAMWEVNEAFSLVVLANIKMLEIDPQKVNINGGAVSLGHPIGMSGARIVGHLTHALKQGEYGLASICNGGGGASAMLIQKL
Experiment II oAβ1-42-B/B Ratio [1]: 2.64 | Experiment III oAβ1-42-B/mAβ1-42-B Ratio [2]: 2.45

B6: Cofilin-2: human brain protein (protein, UniProt Q9Y281 2-166, looked up)
Cofilin-2: ASGVTVNDEVIKVFNDMKVRKSSTQEEIKKRKKAVLFCLSDDKRQIIVEEAKQILVGDIGDTVEDPYTSFVKLLPLNDCRYALYDATYETKESKKEDLVFIFWAPESAPLKSKMIYASSKDAIKKKFTGIKHEWQVNGLDDIKDRSTLGEKLGGNVVVSLEGKPL
Experiment II oAβ1-42-B/B Ratio [1]: 1.81 | Experiment III oAβ1-42-B/mAβ1-42-B Ratio [2]: 6.93

B7: Tubulin beta-3 chain: human brain protein (protein, UniProt Q13509 1-450, looked up)
Tubulin beta-3 chain: MREIVHIQAGQCGNQIGAKFWEVISDEHGIDPSGNYVGDSDLQLERISVYYNEASSHKYVPRAILVDLEPGTMDSVRSGAFGHLFRPDNFIFGQSGAGNNWAKGHYTEGAELVDSVLDVVRKECENCDCLQGFQLTHSLGGGTGSGMGTLLISKVREEYPDRIMNTFSVVPSPKVSDTVVEPYNATLSIHQLVENTDETYCIDNEALYDICFRTLKLATPTYGDLNHLVSATMSGVTTSLRFPGQLNADLRKLAVNMVPFPRLHFFMPGFAPLTARGSQQYRALTVPELTQQMFDAKNMMAACDPRHGRYLTVATVFRGRMSMKEVDEQMLAIQSKNSSYFVEWIPNNVKVAVCDIPPRGLKMSSTFIGNSTAIQELFKRISEQFTAMFRRKAFLHWYTGEGMDEMEFTEAESNMNDLVSEYQQYQDATAEEEGEMYEDDEEESEAQGPK
Experiment II oAβ1-42-B/B Ratio [1]: 1.18 | Experiment III oAβ1-42-B/mAβ1-42-B Ratio [2]: 2.04

B8: Peroxiredoxin-5, mitochondrial: human brain protein (protein, UniProt P30044 53-214, looked up)
Peroxiredoxin-5, mitochondrial: MAPIKVGDAIPAVEVFEGEPGNKVNLAELFKGKKGVLFGVPGAFTPGCSKTHLPGFVEQAEALKAKGVQVVACLSVNDAFVTGEWGRAHKAEGKVRLLADPTGAFGKETDLLLDDSLVSIFGNRRLKRFSMVVQDGIVKALNVEPDGTGLTCSLAPNIISQL
Experiment II oAβ1-42-B/B Ratio [1]: 2.15 | Experiment III oAβ1-42-B/mAβ1-42-B Ratio [2]: 5.90
